Here are results for three molecules from patent EP0813419B1 (YEDA RESEARCH & DEVELOPMENT COMPANY, LTD., dated 2005).

B1: 'death domain' (DD) of human MORT-1 (residues 92-208) (other, not shown: large carriers)
chain: PGEEDLCAAFNVICDNVGKDWRRLARQLKVSDTKIDSIEDRYPRNLTERVRESLRIWKNTEKENATVAHLVGALRSCQMNLVADLVQEVQQARDLQNRSGAMSPMSWNSDASTSEAS
notes: Gal4 hybrid construct in yeast; also called HF1; MORT-1 DD
B2: 'death domain' (DD) of human TRADD (residues 195-312) (other, not shown: large carriers)
chain: PPPPAQTFLFQGQPVVNRPLSLKDQQTFARSVGLKWRKVGRSLQRGCRALRDPALDSLAYEYEREGLYEQAFQLLRRFVQAEGRRATLQRLVEALEENELTSLAEDLLGLTDPNGGLA
notes: Gal4 hybrid construct in yeast; also called TRADD DD

For series [1], the target named is T1, intracellular domain of the human p75 TNF receptor (human, UniProt P20333 288-461, limits assumed).
T1 construct: domain: intracellular domain; construct not described; also called p75IC
T1 sequence (looked up): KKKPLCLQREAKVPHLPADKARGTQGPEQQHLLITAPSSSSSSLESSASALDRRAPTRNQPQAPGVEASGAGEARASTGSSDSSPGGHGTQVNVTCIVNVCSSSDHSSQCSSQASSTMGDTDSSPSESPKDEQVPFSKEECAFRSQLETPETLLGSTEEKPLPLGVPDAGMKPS
In words: yeast two-hybrid specificity test (not shown).

Series [2] concerns the target B2. In words: yeast two-hybrid (Gal4 DBD and AD fusions, SFY526), beta-galactosidase filter assay.
Series [3] deals with the molecule itself. In words: yeast two-hybrid (Gal4 DBD and AD fusions, SFY526), beta-galactosidase filter assay; self-association.
Series [4] addresses B1. Kind of series: yeast two-hybrid specificity test (not shown).
Series [5] has as its target B2. In words: yeast two-hybrid specificity test (not shown).

On to B1, for which the binding result in series [1] is “no binding”; in series [2], “binds”; in series [3], “no binding”.

B2: the binding result in series [1] is given as “no binding”; in series [3] it was “binds”.

B3: DD of the rat low-affinity NGF receptor (receptor, UniProt P07174 340-425, looked up)
chain: LPLTKREEVEKLLNGDTWRHLAGELGYQPEHIDSFTHEACPVRALLASWGAQDSATLDALLAALRRIQRADIVESLCSESTATSPV
notes: domain: DD; Two-hybrid control; construct not described
Consider B3, for which the binding result in series [4] and in series [5] was “no binding” each time.
